Measured values from a protein production outcome set (Wang et al. 2014).

Experiment: label from the status in PepcDB records

Row | Sequence | protein production
1 | MINLVEFNLFLDLLGSALLLSLPWLLLGIIISSTFLIWTDEQKWVANFPRNRLLSSLVGSALGFLLPLGAFGSVPLVRRLLLQGAPIPLAVSFLVAAPTLNIFAIVRVLSSRQSQYGLIFLCISCSWLMAIVMGLVFSTYRLARQQAEDEGETALLNIPLLRSGALIILQSSMEASPRQGGLVFASGVNPVADFSWRQKLHLFGRNIIEEFQEFGGVLVIGTAIACGIVFFLPQAWLLQWAGLGPVRQTVLMMGWSFILPLGNFSNPDLLAPLGEQLWRGSMVAFLLWGSLFNLQTIGLWLVTLRLRPLSYLVVLVGLSVFLFAMVTNYYLS | failed
2 | MRPLAAILALPILEIALFVTIGGAIGLLATLLIIFGTAALGVFLLRRQGVEMQAALQMPRRMDPLALMADGAAVSLAAALLILPGFFTDTVGLLLLIPPVRRALIRRLGRNVQVRSTTWRGPVRDDAPIEADYHEVEPVRDPLAPPSQPPGSSGWTRH | failed
3 | MISTWHKNNNSPRLTVSARIVAKRQNTTYHNQPNAGDTSGAHGYHTTSSTTYYVTFQVESGDRIEMSVSGSEYGKLTEGDEGKLTFQGTRYLQFNMENLEHHHHHH | failed
4 | MTIQSEQALEQGLIKTLVSMNYQKIEIADENALIVNFRNQLNIHNNIELTDDEFNRIMIHLDSGSIFVKAEKLRNRFPLTRDDESVKWIEFLNTQEWCKNEFQVSNQITDEGRRKCRYDVTILVNGLPLVQVELKKRGVELKQAYSQVQRYHKTAFKGLFNYIQIFVISNGVNTRYFANNPNQGYKFTFPWADFKNNHIDRLDLFAAMFFEQCTLGKMLAKYVVLHQSDKCLMILRPYQFYAVEALLDKVANSVKNGYIWHTTGSGKTLTSFKAAQLIAEMSDIDKVLFVVDRHDLDTQTKKEYDAFAPGAVDSTDNTKELVKALQGKKKLMITTIQKLNNAVQKDRYSKGLQGVKDKNIVMIFDECHRSQFGEMHSNITGFFSKIRYFGFTGTPIFADNANNGCTTKDIFGERLHEYLIKDAIADENVLGFLVEYHGKWKRKSENDKQVKSIDTAEVLLKDERIASITDFILSNYNSSTYERDFNAMLAVGGVKMLIKYYDMFKSRNHDLKIATIFTYTQNEESEDEFTGLGQGFVSVQNTRDILESYIKDYNETFGTEFDTDHFGLYYDDINKRMKNRQIDLLIVSDMFLTGFDAKKLNTLYVDKNLNYHGLLQAFSRTNRVLNEKKKFGKITCFRDLKQQTDDAIKLYSNNKSSEVVLMKPYEKLVERFNEMAAEFLSYFPTVKSVGNLESELDKRRFVILFRAMLRLRNEVKGYNEFDAEDLTIEEQRFADYQSKYLDMSNEFAITSEKEDAESILQDIDFELELVHRDIINVMYILALLQDLKPESSSYPKDRKAVLDTMDSNPELRSKIALIDNFIKLHIDGRQSNDLPADMESDLDKYIATQKAIAIEQVATEEGIDSTLLHEYISEYEYLGKPKNEIIKRAIDPLKLSFMDAQSKKKSLIDKMKDIIKLFSWN | failed
5 | MLLTQYEKYKRGFKFDHVWPILKGIEKFANDNMMTPASSPSPGMNSIDLNMDSEDANFSLSSRPMGLKKTKLKQLLEQNDKLIKAITKGTSERNEIQRQKIEVDRMKEENKILFADLNSISDPSSRAYIENERKRILEKRAQTNQHEEDGEGSQYHGSQYRASHYQESPSHGKQVQGEPDQGEDQRSPNNQEDFTQYYNYLSGTENIFP | failed
6 | DEVENLYTQVADNEYLVQGRMLIDEFNEVFETDLHMSDVDTMAGYLITALGTIPDEGEKPSFEVGNIKLTAEEMEGTRLLVLRVHFYDEE | not failed
7 | MTEAATFHLEMTRQIRAPRERVFDAFTDQAALAAWHCPRGMRVLEASADARVGGRYRLVMGSRDGSQHMVGGEYQKIDRANFLAYTWQWEGGELPEGTRTLIEVTLTDKDGGTLLHMRHSGFPDTATRDAHTSGWQSVFNRLSDYVDAEGSAGTVTVYGDGRSTYVRTVRMALAEKGIAYKLDPLTPRDPELLKHNPFGRIPAFTDGPLEFFETRAILSYIEEAFDGPSLISQAGPTARARCEQWISLINCHAYDAMVRRYVLQYVFPSGENGQPDRKTIDAALPDIAKQLDALEHAYGGRDFLAGNTLTMADLFFAPIVEYLGRFPESAAMLESRPNIRRAHAAMRARPSYAATQPNFG | failed
8 | MPKLPPLSLYIHIPWCVQKCPYCDFNSHAQKSDIPEQDYIYHLLQDLQADLQRFKDSIQQRKLHSIFIGGGTPSLFSAESIAYLLKEIKKQIDFEDNIEITLEANPGTVEAERFKGYVSAGIMRISMGIQSFNDDKLQRLGRIHNAAEAKSAVNLAKVSGLKSFNLDLMHGLPNQTLEEALDDLRQAIELSPPHISWYQLTIEPNTMFAYRPPKLPDDDALWDIFEQGHQLLTMAGYQQYETSAYAKAGFQCKHNLNYWRFGDYLAIGCGAHGKLTFPTGEITRFSKTKHPKGYLRGEYLYEEKNVPKIDRPFEFFMNRFRLLEAVPKQEFEDYTGLSQSAVKNQIDFAIQQNYIVENADSWQITEHGKLFLNELLELFLTEELEHHHHHH | not failed
9 | MNTLKKAFEILDFIVKNPGDVSVSEIAEKFNMSVSNAYKYMVVLEEKGFVLRKKDKRYVPGYKLIEYGSFVLRRFNIRDIAHDHLVDIMKRTGETVHLILKDGFEGVYIDKVEGEQSIPMVSRLGMKVDLYSTASGKSILAFVPEKELKEYLKIVELKPKTPNTITNPRVLKRELEKIRKRGYAVDNEENEIGIMCVGVPIFDHNGYPVAGVSISGVARKFTEEKIEEYSDVLKEKAEEISRKLGY | not failed
10 | KSNEIVELSVQKWINELRDANNKLQQEVSELKKKEVNLESSLSLLSSTLESTAIGIVAINFEGDILNYNQKFAEMWKLPQQLILSKKCPRCKAFFEGQMKDPETFNRLIWAVSSTSNIESYDVLELKDGRVFAHYSQPQWLGQ | failed
11 | MLVSLIYVFKQVLSANLDLFYILSLILLIKSLIKKEKYLIKLLYVIYIILFYTGIQIIFLNTSIDLIRYFVSSFKLILNFNLLFYIIKKIKFININKIIKNISYIFFIILVFALILRNNNILWRLNDYVNTFEEVRLRFFYYEPSELGFQVAIIIIIFVFKIYTKKIINKKDFCIIIFLSIILSLTSAYGAIISLMLALIPILFKSFKLNSYKKLLIAYSIILISIVIIYLNFYKISDSYIVQRGLSIISGEDGSVNYRFDIGLNIMINALKNTNLLGVGLSNANTDNFIIEYSNFGLVEVIANSFMYVITELGVLAVVFLVYLLIKCLISAKINNSILKLSLIIYIFSYQIAGGYFSNPTNWIIYGIILSNIKDEELFGRKD | failed
12 | MKYSLGIDLGTTFSVVSIIDENGAPKVLKNKEGNTLTPSVIYFSGEEIIVGDDAKEMQAMGDNNIACFFKRNMGDENFVLEFQNKYYNAEDLSVIVLKKLKKDAEDFLKAEVKDAVITVPAYFNNIQRQSTINAGKRAEFNVLSILNEPTAAAMAYGMKASGENKNILVYDLGGGTFDVTLVHIGEELIKVLSTDGDHELGGKDWDDRIAMYIGEKFFEKFGVNPMDDIEYYNDILVKCENVKKHLSKRESTDISIYYCDLSEKFTITKEIFLGLTGDLLQRTKSLSDDVIKSAGLTWEDIDGVLPVGGSTRMPMVLDFIKEVSKKEPIVGINVDEAVSIGAAIKASMENATNTPTLRREEKALFTLGGYKKTEDVMSHSLGMIALNSTGERYINSIIIEKNKKIPCTEKRPYEIRTGRNRNNVLEVYMLQGESEEISDCTILGKYVFYDIEYVGRKPSIIDIEYSYNKNGVVDVFATQRETAKKLPLKIEKLSEDFIFEEELNEKEEAVHKNIVIAIDLSGSMRGKPLEEAIEASKTFVDSIDEGSFSLALIGFADKVKTLINLTEDREEIFRAIDGLKKADVGTSTMSEPFSEAYNILKDAYGDCFVVVLTDGQWYGKKDIMAEVNKCKEYEIEIAAIGFGNAKKDFLDKIATCEENSIFTEVSNLKQSFSRIAKVISRSDGSIKIFQKSNSIKLR | failed
13 | MASSTTSTVTDLSAALVMAPVPLADWLIILPIALCIGAGAVLMMMRHAIRHHAAVAIAALSLLVILNAALLWKVATQGPFTMVMGRWLPPFGIAFTADLTGALLSLAAAIVALAGAIHAGADIDASGRRYGFYPFLMLLMAGVTGAFLTGDLFNLYVWFEVLLISSFGLIVLGSTREQIDGALKYAILNLIGTTLFLITVGYLYAIFGTLNMADIALKATELRGTAPLMTLASLFALAFAMKAAAFPVNFWLPASYHTPRIVVSALFGGLLTKVGIYSLLRVMVMLFPVEREELSIVIAISAALTMVLGAMGALAQNDIRRMLGYIVISGIGYMMAGIAIGTPSGVSGAIFYALHSMVLMTALYLAAGHAARLGGGFSLTSLGDLYRQAPWFSALALALFFAGSGLPPFSGFWPKAVLVKSAIDIGAWWLAAAILVSGFIATIAFGRVFLLCFWRPVTTSAGQPALQPAARPPAPSVAPLVGLTLLVVFFGLFPESLLNLSQQAAAGLGNPQAYIQSVFPQGGKP | failed
14 | MQAYVLHFIALVIMSLTGTTSGAFAQNGQSTEVSGPIEDRVPHRHQERPGERMPADYGTPRLLNLGAHTFPVSTSNQLAQQYMNQGLNLSYAFNHAEAGRAFREAARLDPALAMAYWGQALVLGPNINAPMEAKNEVSALELVRKAASLAAGVSDRERALIGALEKRYTGNSEDRKANDKAYANAMREVHRRFSGDQDIAMLFVESVMDTSPWGYWMRDDYPMEGTREIVAVTEGVLQGNPRHPGATHMYIHLMEPTNMPERAAQAADTLLTLMPDAGHLIHMPSHIYLRVGRYEDAIIANQRAIAADVRYLVRQHEHGFYAMAYFPHNIHFLGAAATADGQSELAIDSARKVASTIDDAVLKEMPMTGVFRVVPYWALTRFGKWDEMLQEPEPPSSNAFLKGGWHYARGLAFVAKRQLSEAEQELAALREIMKDDSLDGPLLSVNTARSVLRIGPAVLAGEIAAARGQFNSAIAHLEQAVRLEDSLAYTEPPEWQAPPRLTLGAILLEAGHPAEAETVYWEDLRRNRNNGWALYGLLQALRAQGKNERAALVEERFNKAWARADVKLGASRFGCVFSPMTMAGQSR | failed
15 | AIEVEKNNKGINLSFDIEFYPNSFQILQKEYKKIDLIAKLLEKFKKNNILIEGHTEQFGLEEEMHELSEKRARAIGNYLIKMKVKDKDQILFKGWGSQKPKYPKSSPLKAKNRRVEITILN | not failed
16 | MIYSKVENFINENKQNAIFTEGASHENIGRIEENLQCDLPNSYKWFLEKYGAGGLFGVLVLGYNFDHASVVNRTNEYKEHYGLTDGLVVIEDVDYFAYCLDTNKMKDGECPVVEWDRVIGYQDTVADSFIEFFYNKIQEAKDDWDEDEDWDD | not failed
17 | MVWAPLGPPRTDCLTLLHTPSKDSPKMSLEWLVAWSWSLDGLRDCIATGIQSVRDCDTTAVITVACLLVLFVWYCYHVGREQPRPYVSVNSLMQAADANGLQNGYVYCQSPECVRCTHNEGLNQKLYHNLQEYAKRYSWSGMGRIHKGIREQGRYLNSRPSIQKPEVFFLPDLPTTPYFSRDAQKHDVEVLERNFQTILCEFETLYKAFSNCSLPQGWKMNSTPSGEWFTFYLVNQGVCVPRNCRKCPRTYRLLGSLRTCIGNNVFGNACISVLSPGTVITEHYGPTNIRIRCHLGLKTPNGCELVVGGEPQCWAEGRCLLFDDSFLHAAFHEGSAEDGPRVVFMVDLWHPNVAAAERQALDFIFAPGR | failed
18 | ELCNALADKISLKDRFGFSLYIALFDKVSSLGSGSDHVMDAISQCEQYAKEQGAQERNAPWRLFFRKEVFTPWHSPSEDNVATNLIYQQVVRGVKFGEYRCEKEDDLAELASQQYFVDYGSEMILERLLNLVPTYIPDREITPLKTLEKWAQLAIAAHKKGIYAQRRTDAQKVKEDVVSYARFKWPLLFSRFYEAYKFSGPSLPKNDVIVAVNWTGVYFVDEQEQVLLELSFPEIMAVSSSRECRVWLSLGCSDLGCAAPHSGWAGLTPAGPCSPCWSCRGAKTTAPSFTLATIKGDEYTFTSSNAEDIRDLVVTFLEGLRKRSKYVVALQDNPNPAGEESGFLSFAKGDLIILDHDTGEQVMNSGWANGINERTKQRGDFPTDCVYVMPTVTMPPREIVALVTMTPDQRQDVVRLLQLRTAEPEVRAKPYTLEEFSYDYFRPPPKHTLSRVMVSKARGKDRLWSHTREPLKQA | failed
